For test [1], the target named is T1, Recombinant Human CDH6 Fc His chimera (R&D Systems, Inc.) (human, UniProt P55285 54-615).
T1 construct: Bought reagent; Captured on the chip by an anti-His antibody; also called the antigen; not shown: Fc portion of the bought chimera; His tag of the bought chimera
T1 sequence: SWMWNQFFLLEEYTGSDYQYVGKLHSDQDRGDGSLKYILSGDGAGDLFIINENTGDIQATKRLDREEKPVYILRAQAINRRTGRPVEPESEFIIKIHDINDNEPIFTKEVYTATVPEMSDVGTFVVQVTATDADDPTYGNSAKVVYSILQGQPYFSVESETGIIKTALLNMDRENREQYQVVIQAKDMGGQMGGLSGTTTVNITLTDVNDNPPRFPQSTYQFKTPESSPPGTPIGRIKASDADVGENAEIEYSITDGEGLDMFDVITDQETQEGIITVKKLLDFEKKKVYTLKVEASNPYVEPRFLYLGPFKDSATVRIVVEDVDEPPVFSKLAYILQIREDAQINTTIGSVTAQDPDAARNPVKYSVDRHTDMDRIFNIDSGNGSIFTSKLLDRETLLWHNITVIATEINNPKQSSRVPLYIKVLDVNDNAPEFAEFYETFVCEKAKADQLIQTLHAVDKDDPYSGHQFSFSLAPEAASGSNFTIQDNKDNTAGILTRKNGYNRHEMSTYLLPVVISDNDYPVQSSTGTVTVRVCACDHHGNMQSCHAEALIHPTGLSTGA
The test is described as follows: SPR (Biacore T200), antigen captured by immobilized anti-His antibody, antibody as analyte, steady state affinity model. The procedure: The dissociation constant between the antibody and the antigen (Recombinant Human CDH6 Fc His chimera, R&D Systems, Inc.) was measured by using Biacore T200 (GE Healthcare Biosciences Corp.), according to a capture method, which comprises capturing the antigen as a ligand with the immobilized anti-His antibody and then measuring the dissociation constant using an antibody as an analyte. Approximately 1000 RU of the anti-histidine antibody (His capture kit, GE Healthcare Biosciences Corp.) was covalently bound to sensor chip CM5 (GE Healthcare Biosciences Corp.) by the amine coupling method. The antibody was also immobilized onto reference cells in the same manner as above. HBS-P+(10 mM HEPES pH 7.4, 0.15 M NaCl, 0.05% Surfactant P20) supplemented with 1 mM CaCl₂ was used as a running buffer. The antigen was added onto the anti-histidine antibody-immobilized chip for 60 seconds, and a dilution series solution (0.391 to 100 nM) of the antibody was then added at a flow rate of 30 μl/min for 300 seconds. Subsequently, the dissociation phase was monitored for 600 seconds. As a regeneration solution, a glycine solution (pH 1.5) supplemented with 5 M MgCl₂ was added twice at a flow rate of 10 μl/min for 30 seconds. A Steady State Affinity model in analysis software (BIAevaluation software, version 4.1) was used in data analysis, and the dissociation constant (KD) was calculated.
For orientation: SPR reads the build-up and loss of mass on a sensor chip optically.

For test [2], the target named is T2, cynomolgus monkey CDH6 (full-length, on cells) (cynomolgus monkey, UniProt P55285 54-790 (human entry)).
T2 construct: Expressed from pcDNA3.1-cynoCDH6 on transfected cells; also called cynoCDH6
T2 sequence: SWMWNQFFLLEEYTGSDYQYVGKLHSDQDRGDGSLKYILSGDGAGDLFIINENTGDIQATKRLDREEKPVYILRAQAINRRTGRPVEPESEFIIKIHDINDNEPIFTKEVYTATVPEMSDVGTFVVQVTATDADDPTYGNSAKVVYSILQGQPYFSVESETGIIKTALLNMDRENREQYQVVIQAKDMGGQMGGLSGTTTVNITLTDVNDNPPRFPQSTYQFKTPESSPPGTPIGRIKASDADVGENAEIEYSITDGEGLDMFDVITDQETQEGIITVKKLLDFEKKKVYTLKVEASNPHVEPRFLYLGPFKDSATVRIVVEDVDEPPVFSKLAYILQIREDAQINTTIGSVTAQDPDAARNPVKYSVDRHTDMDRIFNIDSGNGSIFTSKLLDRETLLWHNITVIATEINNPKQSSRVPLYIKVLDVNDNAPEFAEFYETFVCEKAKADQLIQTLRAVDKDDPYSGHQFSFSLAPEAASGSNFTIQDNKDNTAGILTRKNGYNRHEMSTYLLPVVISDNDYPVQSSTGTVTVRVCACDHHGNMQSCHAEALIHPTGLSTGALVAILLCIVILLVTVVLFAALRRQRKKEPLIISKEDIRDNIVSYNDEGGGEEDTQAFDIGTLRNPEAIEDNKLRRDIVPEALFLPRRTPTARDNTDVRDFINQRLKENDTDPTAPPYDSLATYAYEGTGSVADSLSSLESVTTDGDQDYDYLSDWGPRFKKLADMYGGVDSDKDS
Briefly: Cell-ELISA and flow cytometry screening of hybridoma supernatants on transfected cells. The procedure:
A coloring reaction was carried out with occasional stirring. Thereafter, 1 M HCl was added to the plate (100 μL/well) to terminate the coloring reaction, followed by measurement of the absorbance at 490 nm using a plate reader (ENVISION: PerkinElmer, Inc.).
The obtained cell suspension was used in flow cytometry analysis.
The binding specificity to cynomolgus monkey CDH6 of an antibody produced from the human CDH6- and cynomolgus monkey CDH6-binding antibody-producing hybridomas that had been selected by Cell-ELISA in Example 1)-4 was further confirmed by flow cytometry. […] Thereafter, the cells were suspended by the addition of the culture supernatant from each hybridoma. The cells were left standing at 4° C. for 1 hour. The cells were washed twice with PBS supplemented with 5% FBS, and thereafter, the cells were suspended by the addition of Anti-Rat IgG FITC conjugate (Sigma-Aldrich Co. LLC) that had been 500-fold diluted with PBS supplemented with 5% FBS. The cells were left standing at 4° C. for 1 hour. The cells were washed twice with PBS supplemented with 5% FBS, and then re-suspended in PBS supplemented with 5% FBS and 2 μg/ml 7-aminoactinomycin D (Molecular Probes, Inc.), followed by detection using a flow cytometer (FC500; Beckman Coulter, Inc.).

Usually Kd stands for the free concentration of one partner at which half of the binding sites on the other are occupied at equilibrium, for simple one-to-one binding.

B1: humanized anti-CDH6 antibody H02L02 (antibody, human IgG1, kappa, V domains shown)
VH: EVQLVQSGAEVKKPGASVKVSCKASGYTFTRNFMHWVRQAPGQGLEWMGWIYPGDGETEYNQKFQGRVTITADRSTSTAYMELSSLRSEDTAVYFCARGVYGGFAGGYFDFWGQGTLVTVSS
VL: DIQMTQSPSSLSASVGDRVTITCKASQNIYKNLAWYQQKPGKAPKLLIYDANTLQTGVPSRFSGSGSGSDFTLTISSLQPEDFATYFCQQYYSGWAFGQGTKVEIKR
notes: hH02 heavy chain and hL02 light chain, human IgG1/kappa; also called H02L02 antibody; humanized hG019
B1: in test [1], the Kd stood at 1.1 nM.

B2: humanized anti-CDH6 antibody H02L03 (antibody, human IgG1, kappa, V domains shown)
VH: EVQLVQSGAEVKKPGASVKVSCKASGYTFTRNFMHWVRQAPGQGLEWMGWIYPGDGETEYNQKFQGRVTITADRSTSTAYMELSSLRSEDTAVYFCARGVYGGFAGGYFDFWGQGTLVTVSS
VL: DIQMTQSPSSLSASVGDRVTITCKASQNIYKNLAWYQQKLGEGPKLLIYDANTLQTGVPSRFSGSGSGTDFTLTISSLQPEDFATYYCQQYYSGWAFGQGTKVEIKR
notes: hH02 heavy chain and hL03 light chain, human IgG1/kappa; also called H02L03 antibody; humanized hG019
For the molecule B2, the Kd in test [1] is 1.4 nM.

B3: humanized anti-CDH6 antibody H01L02 (antibody, human IgG1, kappa)
heavy: not shown
light: DIQMTQSPSSLSASVGDRVTITCKASQNIYKNLAWYQQKPGKAPKLLIYDANTLQTGVPSRFSGSGSGSDFTLTISSLQPEDFATYFCQQYYSGWAFGQGTKVEIKRTVAAPSVFIFPPSDEQLKSGTASVVCLLNNFYPREAKVQWKVDNALQSGNSQESVTEQDSKDSTYSLSSTLTLSKADYEKHKVYACEVTHQGLSSPVTKSFNRGEC
notes: hH01 heavy chain and hL02 light chain, human IgG1/kappa; also called H01L02 antibody; humanized hG019
Turning to B3, in test [1], the Kd stood at 1.5 nM.

B4: humanized anti-CDH6 antibody H04L02 (antibody, human IgG1, kappa, V domains shown)
VH: QVQLVQSGAEVKKPGASVKVSCKASGYTFTRNFMHWIRQAPGQGLEWMGWIYPGDGETEYAQKFQGRVTLTADRSTSTAYMELSSLRSEDTAVYYCARGVYGGFAGGYFDFWGQGTLVTVSS
VL: DIQMTQSPSSLSASVGDRVTITCKASQNIYKNLAWYQQKPGKAPKLLIYDANTLQTGVPSRFSGSGSGSDFTLTISSLQPEDFATYFCQQYYSGWAFGQGTKVEIKR
notes: hH04 heavy chain and hL02 light chain, human IgG1/kappa; also called H04L02 antibody; humanized hG019
For the molecule B4, the Kd in test [1] stood at 1.1 nM.

B5: rat anti-CDH6 monoclonal antibody rG019 (antibody, IgG2b, V domains shown)
VH: QVQLQQSGAELVKPGSSVKISCKASGYTFTRNFMHWIKQQPGNGLEWIGWIYCGDGETEYNQKFNGKATLTADRSSSTAYMELSRLTSEDSAVYFCARGVYGGFAGGYFDFWGQGVMVTVSS
VL: DIQMTQSPSLLSASVGDRVTLNCKASQNIYKNLAWYQQKLGEGPKLLIYDANTLQTGIPSRFSGSGSGSDFTLTISSLQPEDVATYFCQQYYSGWAFGGVTNLELKRA
notes: Rat antibody purified from hybridoma supernatant; also called rG019 antibody; clone rG019
Take B5: the binding result in test [2] is “binds”.
